Substrate in this data set: NC(=O)C[C@H](N)C(=O)O
As to the kind of experiment: two-electrode voltage clamp in Xenopus oocytes, Asn-induced currents. It counts as cell-based, Oryza sativa. The following applies: pH 5.4 (Tris/MES), currents at -140 mV, holding potential -40 mV, transport. (In general: Two-electrode voltage clamp is typically applied to oocytes expressing channels or transporters.)

Data on one protein can be found in article PMC6584995, “Disruption of an amino acid transporter LHT1 leads to growth inhibition and low yields in rice” (BMC Plant Biology, 2019).

B1: OsLHT1 (Oryza sativa Japonica Group) (protein)
chain: MGTQVADNYPPAKDGRSAQEKAIDDWLPITSSRNAKWWYSAFHNVTAMVGAGVLSLPYAMSELGWGPGIAVLILSWIITLYTLWQMVEMHEMVPGKRFDRYHELGQHAFGEKLGLWIVVPQQLVVEVGVNIVYMVTGGKSLKKFHDVLCEGHGCKNIKLTYFIMIFASVHFVLSQLPNFNSISGVSLAAAVMSLSYSTIAWGASVDKGKVADVDYHLRATTSTGKVFGFFSALGDVAFAYAGHNVVLEIQATIPSTPEKPSKKPMWKGVVVAYIIVALCYFPVALVGYWAFGNHVDDNILITLSRPKWLIALANMMVVIHVIGSYQIYAMPVFDMIETVLVKKLRFPPGLTLRLIARTLYVAFTMFIAITFPFFGGLLGFFGGFAFAPTTYFLPCIMWLAIYKPRRFSLSWFTNWICIILGVMLMILSPIGGLRQIIIDAKTYKFYS
For the protein B1, the Km worked out at 583 ± 51 µM.

In general, Km refers to the substrate concentration at which the rate is half of its maximum.
